{"source": "the DeepSol protein solubility set", "data": [{"assay": "soluble on expression in E. coli; label from the status in PepcDB or PDB records", "values": [{"sequence": "MGSDKIHHHHHHMKIRYGIIGVGGHGKNRHLIPLIKLKNKVEIVAVADVKKERCEEVSSQFNIKCYLDYMEMVEKESLNAVSIVTPTGLHSRIAINVLNKGVNVLVDKPLGSNLEEVKEVVNTARNKGLKLMVGYWSRFSPALQYGKEIIHNGLLGEPYVAYGYLVRRRGIPGIPTFIDKTLSGGRGALLDIGCYLIDNLLSLLKFRKPISVMGKVYTKFGNVKEEVKFNWGSWDPENFSLDDYAVGLVKLEGDVSLILEVGWSANVSHVEEKSYVRILGDKGGIEGSGHEAIVDISFHSRTENFLTDTKPVLRKVDPYFEMINAFVDSILTDREPPITGEESVTLHSIIDGIYKSSTEDKEVKISL", "soluble on expression in E. coli": "not soluble"}, {"sequence": "MTVAVIGAHGGIGRRLLPRLNEAGHDPIGVVRSEDQFAAIRDRGAEPRLGDLEGEVASALDGADAVVFTAGAGGSTGWDKTILVDLWGAERAVHACEEKEIDRFVMVSSRGAGDPESRQGPIKPYIVAKHVADRTLQRSSLDETILRPTRLTDAEGTGRVAAYVDTDPDAGDPIPRADVAQAVVQCLADDNTVGHAITLYGGDTPIGEALRPSGLEHHHHHH", "soluble on expression in E. coli": "not soluble"}, {"sequence": "MSLEDNERVDHLIKEGYEIIQNDEVFSFSTDALLLGYLTEVRKNDKVMDLCSGNGVIPLLLAAKSTQPIEGIEIQEQLVSMARRSFKLNDLNDRLTMHHMDLKDVYQTFQPAQYTLVTCNPPYFKMNQNHQHQKEAHKIARHEIMCNLKDCIEAARHLLKEGGRFIMVHRAERLMDVLTELRHGKIEPKALTLVYSKHDKPAQTIVVEGRKGGNQGLDIRNPLYIYNEDGSYSDEMKGVYYGEGHHHHHH", "soluble on expression in E. coli": "soluble"}, {"sequence": "MSLEKKNASTDEKGYYSNKISLEDLNKNIEDKKEQTIYFYQTSCVHCQKVSPIVVPLAKDLNVDMKVIDIENLNEPWDKYNIQGTPTIIHFKDGKEVSRISGEQSKDKFKEWFEQTKKEGHHHHHH", "soluble on expression in E. coli": "not soluble"}, {"sequence": "GSMSFLGFGGGQPQLSSQQKIQAAEAELDLVTDMFNKLVNNCYKKCINTSYSEGELNKNESSCLDRCVAKYFETNVQVGENMQKMGQSFNAAGKF", "soluble on expression in E. coli": "soluble"}, {"sequence": "MAHHHHHHMLKRYERTKLNVLRGERFLRLCEVSYRAVCRDPSLGGAEGIANIEDRTWEMVQRTFQASPERCSLKNAPFSVDGVEICALLRRPDNVFLILVAQYRPPVDAVVLEFPAGLVDNGEDVKSAALRELKEETGYVATEENIISVTDALCCEPGMTDSCCKFVRLFVDGEKEVNRFPQQELDEGEDIEVILLPISLKKGVAGGDTPLQSLNKLLHEKNKGQQRNIVDAKLYMFLDGLSQMSTMFC", "soluble on expression in E. coli": "soluble"}, {"sequence": "MGSDKIHHHHHHMARGYIAKKLLVEGKDDLRVIPELIEKNGIVWGNNKKEAIVTIEDYGGYTNINSDLVSTELQASGLTHLGLMVDADDKPQTRWQSIREACLDSILDIPEEIPTTGLIHTTNTGIKFGVWIMPDNLMQGMLETFLAYMIPDESEPLWMYAQEVVAEAKIKGASFIDARIDKAKIHTWLAWQEEPGR", "soluble on expression in E. coli": "not soluble"}, {"sequence": "MGSDKIHHHHHHMKTIKGPAIFLAQFMSDVAPFNNLKNICDWAASLGYKGVQIPSWDVRCIDLQKAAESKTYCDEIKAVVHAAGLEITELTSHLQGQLVASHAAYDAAFDVFAPAAIHNNPKARAEWATQQLMYAAKASQNLGLTAHATFSGALLWHTMYPWPQRKAGSVEEGFTELAKRWLPILNAFDQAGVDLCYEIHPGEDLHDGITFERFLKATDNHSRAHILYDPSHFVLQQLNYLDYIDIYHEHIKMFHVKDAEFNPSGRAGVYGGYQDWIDRPGRFRSLGDGQVNFKAIFSKLTQYDFPGWAVLEWECCLKHPEDGAREGAAFIKNHIIRVADKAFDDFAG", "soluble on expression in E. coli": "not soluble"}, {"sequence": "MSAIWLSGAQAFCPAPASLPVAHVQRVVDGDTLRLTDGRNVRMIGLNTPETGKKGRSAEPFAEAAKKRLQALVDKSGGQISLRVGQQGKDHYGRTLANVYGRNGDNLEAQLLSEGLGYLVAVAPNVALVDCQQSAEREARQARRGVWRNSQVQPSDKLRKGGFAVVSGKVRSVQRNRGGIWIELHGSVVLRVAPDQAFRFDMAALERLKGRQIETRGWVIDRSGRGGLKAGQSRWMIALSHPAMLSLLEHHHHHH", "soluble on expression in E. coli": "not soluble"}, {"sequence": "MSLDQAAVCLTICRINQLLSPSLLLKWWKADPSMSLTSPVLQTVTRDQIKAAALKNEIEQFYPKLPRVLAAYREQGINTIPISSKQYPFWLKSIYDPPAVLFAKGDMTLLSKGRKIGIVGTRNPTAYGKQVVNHLTKEICRKGWVIVSGLASGIDGMSHAASIKAKGRTIGVIAGGFQHIYPRENLQLADHMAKHHILLSEHPPETKPQKWHFPMRNRIISGLSEGVIVVQGKEKSGSLITAYQALEQGREVFAVPGSLFDPYAGGPIKLIQQGAKAIWSAEDIFEELPERNVQYTEPFEGHHHHHH", "soluble on expression in E. coli": "not soluble"}]}]}
